Test results from patent US20240327804A1, “CONJUGATES AND METHODS OF USE THEREOF” (Regents of the University of Minnesota, priority 2023, published 2024).

Legend:
[1] = target: T1, epithelial cell adhesion molecule (EpCAM) on HT29-R cells (human, UniProt P16422 24-314); test: flow cytometry, 0.5 µM fluorescein-labeled CSANs on HT29-R (EpCAM+) cells, 1 h at 4° C.
T1 construct: whole, on cells
T1 sequence (looked up): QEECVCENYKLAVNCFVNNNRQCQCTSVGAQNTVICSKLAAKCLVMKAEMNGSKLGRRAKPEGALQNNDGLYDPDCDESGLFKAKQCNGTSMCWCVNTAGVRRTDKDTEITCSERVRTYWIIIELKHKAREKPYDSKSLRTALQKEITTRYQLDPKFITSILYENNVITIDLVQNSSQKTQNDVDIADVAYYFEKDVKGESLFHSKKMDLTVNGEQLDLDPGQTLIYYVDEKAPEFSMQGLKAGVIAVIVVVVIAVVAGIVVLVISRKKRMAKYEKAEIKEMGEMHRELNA
Method: (§1) The binding specificity of the CSANs to the corresponding cellular receptors was studied by flow cytometry. A431-R cells were chosen as the EGFR⁺ cell line; SK-BR-3-R cells were chosen as the HER2⁺ cell line; HT-29-R cells were chosen as the EpCAM⁺ cell line; HT29-R cells were chosen as the CD133⁺ cell line. The cells were harvested and washed with DPBS buffer (Gibco, Cat: 14190144), and aliquots of […] were then resuspended in 100 μL of DPBS solutions containing 0.5 μM of fluorescein-labeled CSANs and incubated for 1 h at 4° C. The cells were then pelleted, washed, and resuspended in 0.5 mL of cold DPBS and analyzed using an LSR II flow cytometer (BD Biosciences) at the University Flow Cytometry Resource (UFCR). For the cell surface modification with farnesylated CSANs, the sender cells were collected from cell culture, pelleted at 350 g for 5 min, and washed with 1 mL DPBS. Aliquots of 10⁵ cells were then incubated in 100 μL of DPBS solutions containing the desired concentrations of fluorescein-labeled farnesylated CSANs for at least 1 h at room temperature with rotation and washed twice with 1 mL cold DPBS to remove unbound CSANs. The modified cells were then resuspended in 0.5 mL of cold DPBS and analyzed using an LSR II flow cytometer (BD Biosciences) at the University Flow Cytometry Resource (UFCR).

[2] = target: T2, epidermal growth factor receptor (EGFR) on A431-R / MDA-MB-231-R cells (human, UniProt P00533 25-1210); test: flow cytometry, fluorescein-labeled CSANs on A431-R cells, 1 h at 4° C.
T2 construct: whole, on cells
Method: as §1

[3] = target: T1, epithelial cell adhesion molecule …; test: flow cytometry, fluorescein-labeled CSANs on HT29-R cells, 1 h at 4° C.
Method: as §1

[4] = target: T3, human epidermal growth factor receptor 2 (HER2) on SK-BR-3-R cells (human, UniProt P04626 23-1255); test: flow cytometry, fluorescein-labeled CSANs on SK-BR-3-R cells, 1 h at 4° C.
T3 construct: whole, on cells
Method: as §1

[5] = tested on: receptor expressing target cells (A431-R, SK-BR-3-R, HT29-R); test: Binding specificity of CSANs to cellular receptors by flow cytometry; details: unfarnesylated fluorescein-labeled CSANs, 0.5 μM, 1 h, 4° C.
Method: as §1, with “EGFR^+” for “EGFR⁺”, “HER2^+” for “HER2⁺”, “EpCAM^+” for “EpCAM⁺”, “CD133^+” for “CD133⁺”, “10^5” for “10⁵”

CD133+ HT29-R cells = test: Binding of CSANs to CD133+ HT29-R cells by flow cytometry; details: fluorescein-labeled CSANs
Method: The Bangs beads (Bangs Laboratories, Cat: 815A) were collected and resuspended in PBS, and then stained with the fluorescently labeled antibody that detects the corresponding cell surface receptor (anti-EGFR-BV421, Biolegend, Cat: 352911; anti-HER2-BV421, Biolegend, Cat: 324420; anti-EpCAM-AF647, Biolegend, Cat: 118211) at 4° C. for >30 min, followed by wash steps. 100,000 of the cancer cells were collected and stained with the corresponding antibody at 4° C. for >30 min, followed by wash steps. The cells and beads were analyzed by flow cytometry. The calibration curve was generated based on the MFI of the beads and the corresponding antibody binding capacity of the beads. The receptor number was calculated based on the MFI of the cells stained with the antibody and the previously generated calibration curve. […]
The binding specificity of the CSANs to the corresponding cellular receptors was studied by flow cytometry. […] The cells were then pelleted, washed, and resuspended in 0.5 mL of cold DPBS and analyzed using an LSR II flow cytometer (BD Biosciences) at the University Flow Cytometry Resource (UFCR). […] The modified cells were then resuspended in 0.5 mL of cold DPBS and analyzed using an LSR II flow cytometer (BD Biosciences) at the University Flow Cytometry Resource (UFCR).

B1: unfarnesylated αEpCAM-Fn3 CSANs (αEpCAM-Fn3-DHFR^2-CVIA oligomerized by bisMTX) (designed binder)
chain: MDYKDDDDKASSSDSPRNLEVTNATPNSLTISWDNSNYASYYRITYGETGGNSPSQELTVPGSTYNATISGLKPGQDYIITVYAVTYRDNYSYSNLISINYRSEIDKPSQGSGGSGGGGSGGGGSGGGGSGGGGSGGGGSGGGGSGGGGSGGGGSGGELGGISLIAALAVDRVIGMENAMPWNLPADLAWFKRNTLNKPVIMGRHTWESIGRPLPGRKNIILSSQPGTDDRVTWVKSVDEAIAAAGDVPEIMVIGGGRVYEQFLPKAQKLYLTHIDAEVEGDTHFPDYEPDDWESVFSEFHDADAQNSHSYSFEILERRGGISLIAALAVDRVIGMENAMPWNLPADLAWFKRNTLNKPVIMGRHTWESIGRPLPGRKNIILSSQPGTDDRVTWVKSVDEAIAAAGDVPEIMVIGGGRVYEQFLPKAQKLYLTHIDAEVEGDTHFPDYEPDDWESVFSEFHDADAQNSHSYSFEILERRGGSGGGSGGHHHHHHGGSGGSGGKKKKKKTCVIA
modifications: Non-specific NHS-fluorescein label on amines; monomers joined non-covalently into a predominantly octameric ring by bisMTX; the letters give one monomer.
notes: Fn3-DHFR^2 fusion nanoring formed with bisMTX; 'predominantly octameric'; also called anti-EpCAM-C5-Fn-1DD-CVIA
- binding result [1]: binds

B2: non-targeting DHFR^2-CVIA CSANs (other)
chain: GISLIAALAVDRVIGMENAMPWNLPADLAWFKRNTLNKPVIMGRHTWESIGRPLPGRKNIILSSQPGTDDRVTWVKSVDEAIAAAGDVPEIMVIGGGRVYEQFLPKAQKLYLTHIDAEVEGDTHFPDYEPDDWESVFSEFHDADAQNSHSYSFEILERRGGISLIAALAVDRVIGMENAMPWNLPADLAWFKRNTLNKPVIMGRHTWESIGRPLPGRKNIILSSQPGTDDRVTWVKSVDEAIAAAGDVPEIMVIGGGRVYEQFLPKAQKLYLTHIDAEVEGDTHFPDYEPDDWESVFSEFHDADAQNSHSYSFEILERRGGSGGSGGDYKDDDDKGGSGGSGGKKKKKKTCVIA
modifications: Non-specific NHS-fluorescein label on amines; monomers joined non-covalently into a predominantly octameric ring by bisMTX; the letters give one monomer.
notes: Control nanoring without targeting domain, unfarnesylated; 'predominantly octameric'
- binding result [2]: no binding (tested: 0.5 µM)
- binding result [3]: no binding (tested: 0.5 µM)
- binding result [4]: no binding (tested: 0.5 µM)

B3: DHFR^2-CVIA CSANs: non-targeting unfarnesylated control CSANs from DHFR^2-CVIA protein (protein)
chain: GISLIAALAVDRVIGMENAMPWNLPADLAWFKRNTLNKPVIMGRHTWESIGRPLPGRKNIILSSQPGTDDRVTWVKSVDEAIAAAGDVPEIMVIGGGRVYEQFLPKAQKLYLTHIDAEVEGDTHFPDYEPDDWESVFSEFHDADAQNSHSYSFEILERRGGISLIAALAVDRVIGMENAMPWNLPADLAWFKRNTLNKPVIMGRHTWESIGRPLPGRKNIILSSQPGTDDRVTWVKSVDEAIAAAGDVPEIMVIGGGRVYEQFLPKAQKLYLTHIDAEVEGDTHFPDYEPDDWESVFSEFHDADAQNSHSYSFEILERRGGSGGSGGDYKDDDDKGGSGGSGGKKKKKKTCVIA
- binding to receptor expressing target cells [5]: no observable binding

B4: αCD133-scFv-DHFR^2 CSANs: fluorescein-labeled CSANs from αCD133-scFv-DHFR^2 protein (protein)
chain: MDIVLSQSPAIMSASPGEKVTISCSASSSVSYMYWYQQKPGSSPKPWIYRTSNLASGVPARFSGSGSGTSYSLTISSMEAEDAATYYCQQYHSYPPTFGAGTKLELKSSGGGGSGGGGGGSSRSSLEVKLVESGPELKKPGETVKISCKASGYTFTDYSMHWVNQAPGKGLKWMGWINTETGEPSYADDFKGRFAFSLETSASTAYLQINNLKNEDTATYFCATDYGDYFDYWGQGTTLTVSSELGGSGGGSGGGSGGMISLIAALAVDRVIGMENAMPWNLPADLAWFKRNTLNKPVIMGRHTWESIGRPLPGRKNIILSSQPGTDDRVTWVKSVDEAIAAAGDVPEIMVIGGGRVYEQFLPKAQKLYLTHIDAEVEGDTHFPDYEPDDWESVFSEFHDADAQNSHSYSFEILERRGMISLIAALAVDRVIGMENAMPWNLPADLAWFKRNTLNKPVIMGRHTWESIGRPLPGRKNIILSSQPGTDDRVTWVKSVDEAIAAAGDVPEIMVIGGGRVYEQFLPKAQKLYLTHIDAEVEGDTHFPDYEPDDWESVFSEFHDADAQNSHSYSFEILERRGGSGGGSGGGSGGDYKDDDDK
- binding to HT29-R cells (CD133+ HT29-R cells): specifically bind
